We go through 1 molecule from patent US7994133B2, “Isozyme-specific antagonists of protein kinase C” (The Board of Trustees of the Leland Stanford Junior …, priority 2003, dated 2011).

Common to all, as to assay type: cell-based
Test [1] relates to CHO cells. Kind of test: Real-time confocal imaging of PMA-induced εPKC translocation with mathematical modeling. As for the experimental part: (§1) CHO cells were grown on glass coverslips, and serum-starved as described in Example 4. For each experiment, cells were transferred to a commercially available metal coverslip holder (Molecular Probes) in which the coverslip formed the bottom of a 1 ml bath. The media was then replaced with extracellular buffer (120 mM NaCl, 5 mM KCl, 1.5 mM CaCl2, 1.5 mM MgCl2, 20 mM HEPES and 30 mM glucose). Cells were stimulated by either PMA (100 nM), or with ATP (1 mM) in extracellular buffer. Fluorescence images of GFP-tagged constructs were obtained using the 488 nm excitation line of a laser scanning confocal microscope (Pascal, Zeiss) and emission was collected through a 505-550 nm band pass filter. Cells were imaged on the stage of an inverted microscope (Axiovert 100M) using a 40× Zeiss Plan-apo oil immersion objective with 1.2 numerical aperture (NA). For dual color imaging of CFP and YFP fusion proteins, a spinning disk Nipkow confocal microscope was used. Cells were viewed using an inverted Olympus IX70 microscope with a 40× oil immersion Olympus objective (1.35NA) and images were acquired with a CCD camera (Hamamatsu) and 2×2 pixel binning. CFP was excited with the 442 nm laser line of a helium-cadmium laser (Kimmon) whereas YFP was imaged with the 514 nm line of an argon ion laser (Melles-Griot). To selectively photobleach YFP labeled proteins in local regions of the cytoplasm for FRAP experiments, the 514 nm line of an Enterprise laser (Coherent) at maximal power (˜400 mW) was used. For these experiments, a 60× oil immersion objective was used (1.4NA). Under these conditions, and by placing an iris in the beam path, it was possible to bleach 80% of the YFP fluorescence in 500 ms in an area of the cytosol measuring approximately 35 um2. Real time confocal images were acquired every 10-15 seconds for 20 minutes for experiments utilizing PMA, and every 5 seconds for a total duration of 3 minutes in the case of cells stimulated with ATP. Reagents were added to the cell chamber after the fifth image in each time series. […] All images were acquired at room temperature. Images were exported as 12 or 16 bit files and changes in fluorescence intensity were measured using MetaMorph® data analysis software (Universal Imaging Corp.). To monitor the translocation of PKC, a small region of interest was selected in the cytosol of each cell and fluorescence intensity values graphed against time after subtraction of background values and normalized so that the initial fluorescence was 100%. Averages of 10-15 cells from three independent experiments were used. To determine statistical significance, a 1 tail type 2 T-test (Microsoft excel) was used.
Mathematical modeling was obtained from data of cells expressing similar levels of the different εPKC ΨεRACK mutants. Non-linear least squares curve fitting analysis was performed using the EViews software (QMS) and differential equation analysis was performed using Berkeley Madonna™. All other methods for this Example were performed as described, for example, in Examples 4 and 6.
Fluorescence time courses were analyzed by a non-linear regression analysis with single and biexponential equations (1 and 2) as previously done by Nalefski and Newton Nalefski, E. A. & Newton, A. C., Biochemistry 40:13216-13229 (2001)], where I(t) is the concentration of observed molecules in the cytosol at time (t), and C1-5 are constants. I(t)=C1+C2e^(−C3(t)) 1. I(t)=C1+C2e^(−C3(t))+C4e^(−C5(t)) 2. Residual error graphs obtained using single exponential equations (FIG. 8A) and using biexponential equations (FIG. 8B) for the D(86)A εPKC mutant translocation process is shown in FIGS. 8A-8D. […] This process can be described as follows:
The value of C1 corresponds to the level of εPKC in the cytosol at steady state. It was next determined whether the hypothesis that the values obtained for C1 and C3 of D(86)A and Wt εPKCs are statistically equivalent. […]

In test [2] the test system is CHO cells. Kind of test: Real-time confocal imaging of ATP-induced εPKC translocation. The conditions noted are these: 1 mM ATP, GFP fusion. The protocol:
as §1
It was next determined whether differences in translocation rates of the different εPKCs were also observed when translocation was stimulated via receptor signaling rather than by PMA. ATP has been previously used to activate PKC in CHO cells by stimulating purinergic G protein-coupled receptors [Maasch, C. et al., FASEB J. 14:1653-1663 (2000)]. All methods for this Example were performed as described, for example, in Examples 4, 6 and 7.

The nature of test [3]: Fluorescence recovery after photobleaching (FRAP) of cytoplasmic εPKCs. The conditions noted are these: average of at least 10 cells. As for the experimental part: CHO cells were grown on glass coverslips, and serum-starved as described in Example 4. For each experiment, cells were transferred to a commercially available metal coverslip holder (Molecular Probes) in which the coverslip formed the bottom of a 1 ml bath. The media was then replaced with extracellular buffer (120 mM NaCl, 5 mM KCl, 1.5 mM CaCl2, 1.5 mM MgCl2, 20 mM HEPES and 30 mM glucose). Cells were stimulated by either PMA (100 nM), or with ATP (1 mM) in extracellular buffer. Fluorescence images of GFP-tagged constructs were obtained using the 488 nm excitation line of a laser scanning confocal microscope (Pascal, Zeiss) and emission was collected through a 505-550 nm band pass filter. Cells were imaged on the stage of an inverted microscope (Axiovert 100M) using a 40× Zeiss Plan-apo oil immersion objective with 1.2 numerical aperture (NA). For dual color imaging of CFP and YFP fusion proteins, a spinning disk Nipkow confocal microscope was used. Cells were viewed using an inverted Olympus IX70 microscope with a 40× oil immersion Olympus objective (1.35NA) and images were acquired with a CCD camera (Hamamatsu) and 2×2 pixel binning. […] Under these conditions, and by placing an iris in the beam path, it was possible to bleach 80% of the YFP fluorescence in 500 ms in an area of the cytosol measuring approximately 35 um2. […] Images were exported as 12 or 16 bit files and changes in fluorescence intensity were measured using MetaMorph® data analysis software (Universal Imaging Corp.). To monitor the translocation of PKC, a small region of interest was selected in the cytosol of each cell and fluorescence intensity values graphed against time after subtraction of background values and normalized so that the initial fluorescence was 100%. […]
Different translocation rates may reflect differences in overall mobility (diffusion) of the εPKCs in cells. Therefore, fluorescence recovery after photobleaching (FRAP) of the cytoplasmic enzyme was measured; mobility of εPKCs was measured by monitoring the time required for the fluorescence to recover in a bleached region. […]

The mark [4] stands for this setting: constant of bi-exponential fit, 100 nM PMA.

B1: Wt: wild type εPKC, human construct (protein)
chain: MVVFNGLLKIKICEAVSLKPTAWSLRHAVGPRPATFLLDPYIALNVDDSRIGQTATKQKTNSPAWHDEFVTDVCNGRKIELAVFHDAPIGYDDFVANCTIQFEELLQNGSRHFEDWIDLEPEGRVYVIIDLSGSSGEAPKDNEERVFRERMRPRKRQGAVRRRVHQVNGHKFMATYLRQPTYCSHCRDFIWGVIGKQGYQCQVCTCVVHKRCHELIITKCAGLKKQETPDQVGSQRFSVNMPHKFGIHNYKVPTFCDHCGSLLWGLLRQGLQCKVCKMNVHRRCETNVAPNCGVDARGIAKVLADLGVTPDKITNSGQRRKKLIAGAESPQPASGGSPSEEDRSKSAPTSPCDQEIKELENNIRKALSFDNRGEEHRAASSPDGQLMSPGENGEVRQGQAKRLGLDEFNFIKVLGKGSFGKVMLAELKGKDEVYAVKVLKKDVILQDDDVDCTMTEKRILALARKHPYLTQLYCCFQTKDRLFFVMEYVNGGDLMFQIQRSRKFDEPRSRFYAAEVTSALMFLHQHGVIYRDLKLDNILLDAEGHCKLADFGMCKEGILNGVTTTTFCGTPDYIAPEILQELEYGPSVDWWALGVLMYEMMAGQPPFEADNEDDLFESILHDDVLYPVWLSKEAVSILKAFMTKNPHKRLGCVASQNGEDAIKQHPFFKEIDWVLLEQKKIKPPFKPRIKTKRDVNNFDQDFTREEPVLTLVDEAIVKQINQEEFKGFSYFGEDLMP
B1: in test [1] (100 nM PMA, GFP fusion), the “rate of translocation (decrease of fluorescence in the cytoplasm)” value was “slower rate” and the “time at which translocation to the cell periphery became apparent” value was 2 to 3 min. The “time after PMA stimulation at which the enzyme was found at the cell periphery” value in test [1] (YFP-εPKC D(86)A and CFP-εPKC Wt co-transfected in the same cell, 100 nM PMA) is more than 10 min. In test [1] (calculated with k-1 negligible), the “(k2 + k − 2) = C3” value is recorded as 0.016 ± 0.004 and the “k − 2/(k2 + k − 2) = C1/100” value is 0.305 ± 0.010. In test [1] (setting [4]), this molecule registered a C3 of 0.016 ± 0.004 and a C5 of 0.009 ± 0.001. Further, the C1 in test [1] (constant of bi-exponential fit, level of εPKC in the cytosol at steady state, 100 nM PMA) is listed as 30.46 ± 0.991. The “k − 1” value in test [1] (rate of closing in the cytosol, assumed negligible) is reported as approximately 0. Further, the “k − 2” value in test [1] (rate of detachment from the membrane, calculated with k-1 negligible) is 0.005 ± 0.0011. In addition, the k2 in test [1] (rate of εPKC binding to the membrane, calculated with k-1 negligible) is on record as 0.011 ± 0.002. Besides, the “k1 = C5” value in test [1] (rate of εPKC opening in the cytosol, calculated with k-1 negligible) is listed as 0.009 ± 0.001. In addition, the “time after stimulation at which translocation was apparent” value in test [2] was found to be 10 s. The “time to fifty percent FRAP” value in test [3] was found to be 9.0 ± 1.2 s.
